B1: His-tagged p32 (wild type, recombinant) (natural protein, UniProt Q07021 74-282, looked up)
chain: LHTDGDKAFVDFLSDEIKEERKIQKHKTLPKMSGGWELELNGTEAKLVRKVAGEKITVTFNINNSIPPTFDGEEEPSQGQKVEEQEPELTSTPNFVVEVIKNDDGKKALVLDCHYPEDEVGQEDEAESDIFSIREVSFQSTGESEWKDTNYTLNTDSLDWALYDHLMDFLADRGVDNTFADELVELSTALEHQEYITFLEDLKSFVKSQ
notes: p32 (gC1qR/C1QBP/HABP1); also called His-p32; mature p32
B2: GST-p32 (233-250) (domain or fragment, UniProt Q07021 233-250, looked up)
chain: WALYDHLMDFLADRGVDN
notes: source: expressed and purified on glutathione-Sepharose 4B beads
B3: GST-p53 tetramerization domain (residues 328-368) (domain or fragment, UniProt P04637 328-368, looked up)
chain: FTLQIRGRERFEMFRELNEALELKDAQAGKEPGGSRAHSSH
notes: source: bacterially produced, purified on glutathione-Sepharose 4B beads
B4: GST-p32 C-terminal domain (residues 233-282) (domain or fragment, UniProt Q07021 233-282, looked up)
chain: WALYDHLMDFLADRGVDNTFADELVELSTALEHQEYITFLEDLKSFVKSQ
notes: as for B2
B5: GST-p32 (233-250) D249A (domain or fragment, UniProt Q07021 233-250, looked up)
chain: WALYDHLMDFLADRGVAN
notes: also called GST-p32 D249A; source: expressed and purified on glutathione-Sepharose 4B beads

Columns and labels:
Conditions in all cases: both partners purified
GST-p53 = molecular target: T1, GST-p53 (UniProt P04637 1-393); test: pull-down; GST or GST-p53 fusions immobilised on glutathione-Sepharose beads, His-tagged p32 in solution; overnight at 4 °C; 20 mM Tris/HCl pH 7.3, 0.2 M KCl, 0.2 mM EDTA, 20% glycerol, 0.01% Nonidet P-40; blot with anti-His
T1 construct: p53; also called GST-fused p53; source: bacterially produced, purified on glutathione-Sepharose 4B beads
T1 sequence (P04637 whole entry, the tested form may be a part): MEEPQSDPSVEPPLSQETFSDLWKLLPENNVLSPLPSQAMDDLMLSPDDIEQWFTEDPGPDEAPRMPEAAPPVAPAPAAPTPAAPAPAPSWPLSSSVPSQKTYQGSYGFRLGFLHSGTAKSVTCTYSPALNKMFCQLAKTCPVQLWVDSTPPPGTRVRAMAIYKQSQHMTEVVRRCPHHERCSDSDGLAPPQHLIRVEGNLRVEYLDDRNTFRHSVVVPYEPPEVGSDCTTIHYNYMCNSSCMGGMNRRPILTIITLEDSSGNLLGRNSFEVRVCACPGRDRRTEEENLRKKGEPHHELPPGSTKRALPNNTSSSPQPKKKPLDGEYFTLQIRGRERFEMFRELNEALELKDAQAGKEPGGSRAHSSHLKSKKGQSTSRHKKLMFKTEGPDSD

[1] = molecular target: T2, FLAG-tagged p53 (recombinant) (UniProt P04637 1-393); test: cross-linking; purified FLAG-p53 with or without p32 (molar ratio 1:1, 1:2, 1:4) overnight at 4 °C; 10 mM Tris/HCl pH 7.5, 50 mM NaCl, 0.1 mM EDTA, 1 mM DTT, 5% glycerol; 0.01% glutaraldehyde 10 min at 22 °C; SDS/PAGE and anti-FLAG blot for monomers, dimers, tetramers
T2 construct: p53; also called FLAG-p53; source: E. coli Rosetta 2 (DE3) pLysS, purified (anti-FLAG M2 agarose)
T2 sequence (P04637 whole entry): as the sequence (P04637 whole entry, the tested form may be a part) above

[2] = molecular target: T2, FLAG-tagged p53 (recombinant); test: pull-down; GST or GST-p32 fusions immobilised on glutathione-Sepharose beads, FLAG-tagged p53 in solution; overnight at 4 °C; 20 mM Tris/HCl pH 7.3, 0.2 M KCl, 0.2 mM EDTA, 20% glycerol, 0.01% Nonidet P-40; blot with anti-FLAG
[3] = molecular target: B1; test: pull-down; GST or GST-p53 fusions immobilised on glutathione-Sepharose beads, His-tagged p32 in solution; overnight at 4 °C; 20 mM Tris/HCl pH 7.3, 0.2 M KCl, 0.2 mM EDTA, 20% glycerol, 0.01% Nonidet P-40; blot with anti-His

| binding result [2] | Binder | also measured |
| --- | --- | --- |
| – | B1 | binding result (GST-p53): binds; binding result [1]: binds |
| binds | B2 | – |
| – | B3 | binding result [3]: binds |
| binds | B4 | – |
| binds | B5 | – |
